Measured values as given in US11957716B2 (Immatics Biotechnologies GmbH, priority 2021, dated 2024).

What was measured:
HLA-B*07:0 = HLA-B*07:0 (Homo sapiens, UniProt P01889); assay: MHC binding assay, UV-ligand exchange ELISA; settings: peptide exchange yield, binding to HLA-B*07:0
Text: (§1) Candidate peptides for T cell based therapies according to the present invention were further tested for their MHC binding capacity (affinity). The individual peptide-MHC complexes were produced by UV-ligand exchange, where a UV-sensitive peptide is cleaved upon UV-irradiation and exchanged with the peptide of interest as analyzed. Only peptide candidates that can effectively bind and stabilize the peptide-receptive MHC molecules prevent dissociation of the MHC complexes. To determine the yield of the exchange reaction, an ELISA was performed based on the detection of the light chain (β2m) of stabilized MHC complexes. The assay was performed as generally described in Rodenko et al. (Rodenko et al., 2006).
(§2) 96 well MAXISorp plates (NUNC) were coated over night with 2 μg/ml streptavidin in PBS at room temperature, washed 4× and blocked for 1 h at 37° C. in 2% BSA containing blocking buffer. Refolded HLA-A*02:01/MLA-001 monomers served as standards, covering the range of 15-500 ng/ml. Peptide-MHC monomers of the UV-exchange reaction were diluted 100-fold in blocking buffer. Samples were incubated for 1 h at 37° C., washed four times, incubated with 2 μg/ml HRP conjugated anti-82m for 1 h at 37° C., washed again and detected with TMB solution that is stopped with […]. Absorption was measured at 450 nm. Candidate peptides that show a high exchange yield (preferably higher than 50%, most preferred higher than 75%) are generally preferred for a generation and production of antibodies or fragments thereof, and/or T cell receptors or fragments thereof, as they show sufficient avidity to the MHC molecules and prevent dissociation of the MHC complexes.

HLA-A*03:01 = HLA-A*03:01 (Homo sapiens, UniProt P04439); assay: MHC binding assay, UV-ligand exchange ELISA; settings: peptide exchange yield, binding to HLA-A*03:01
Text: as §1, §2

[1] = test system: HLA-A*01:01, HLA-A*02:01, HLA-A*03:01, HLA-A*24:02, HLA-B*07:02, HLA-B*08:01 and HLA-B*44:02; assay: HLA alleles the peptides bind to (Table 7); type: binding, human; settings: allotype from the group HLA-A*01:01, HLA-A*02:01, HLA-A*03:01, HLA-A*24:02, HLA-B*07:02, HLA-B*08:01, HLA-B*44:02
Text: However, due to similarities in binding pattern such as the relevant anchoring positions some peptides bind to more than one allele, such an overlap is most likely, but not limited to, HLA-A*01 binding peptides also binding to HLA-B*15, HLA-A*03 binding peptides also binding to HLA-A*11, HLA-B*07 binding peptides also binding to HLA-B*35 and HLA-B*51.

| Substance | Peptide exchange (HLA-B*07:0) | Peptide exchange (HLA-A*03:01) | Binders (HLA alleles the peptides according to the invention bind to) [1] |
| --- | --- | --- | --- |
| 15 (SPVETRSLL; listed as Homo sapiens) [compound 15] | +++ (≥50% = +++) |  |  |
| 41 (APQPRSLAA; listed as Homo sapiens) [compound 41] | ++++ (≥75% = ++++) |  |  |
| 50 (KTIDLVIVR; listed as Homo sapiens) [compound 50] |  | ++++ (≥75% = ++++) | HLA-A*03:01 |
| 51 (SVFSLVHLFDK; listed as Homo sapiens) [compound 51] |  | ++++ (≥75% = ++++) | HLA-A*03:01 |
| 52 (SPLPHLGPL; listed as Homo sapiens) [compound 52] | +++ (≥50% = +++) |  |  |
| 53 (TTLENLPQK; listed as Homo sapiens) [compound 53] |  | +++ (≥50% = +++) | HLA-A*03:01 |
| 70 (LIAGLIFLK; listed as Homo sapiens) [compound 70] |  | +++ (≥50% = +++) | HLA-A*03:01 |
| 72 (GSCSFALSR; listed as Homo sapiens) [compound 72] |  | ++++ (≥75% = ++++) | HLA-A*03:01 |
| 75 (TTAAVYILK; listed as Homo sapiens) [compound 75] |  | +++ (≥50% = +++) | HLA-A*03:01 |
| 81 (KLIAGLIFLK; listed as Homo sapiens) [compound 81] |  | +++ (≥50% = +++) | HLA-A*03:01 |
| 88 (KVGAVVHLK; listed as Homo sapiens) [compound 88] |  | +++ (≥50% = +++) | HLA-A*03:01 |
| 90 (LALLGAPPPK; listed as Homo sapiens) [compound 90] |  | ++ (≥20% = ++) | HLA-A*03:01 |
| 91 (RIVTYIVAK; listed as Homo sapiens) [compound 91] |  | +++ (≥50% = +++) | HLA-A*03:01 |
| 94 (AVFLGNPSNQK; listed as Homo sapiens) [compound 94] |  | ++++ (≥75% = ++++) | HLA-A*03:01 |
| 101 (ATNSFLLIK; listed as Homo sapiens) [compound 101] |  | ++++ (≥75% = ++++) | HLA-A*03:01 |
| 104 (GSLQTLPPK; listed as Homo sapiens) [compound 104] |  | +++ (≥50% = +++) | HLA-A*03:01 |
| 107 (SVISVLTTPK; listed as Homo sapiens) [compound 107] |  | ++++ (≥75% = ++++) | HLA-A*03:01 |
| 112 (ETYGTFVLR; listed as Homo sapiens) [compound 112] |  | +++ (≥50% = +++) | HLA-A*03:01 |
| 125 (ALAQGANLK; listed as Homo sapiens) [compound 125] |  | +++ (≥50% = +++) | HLA-A*03:01 |
| 127 (TVATQVATSK; listed as Homo sapiens) [compound 127] |  | +++ (≥50% = +++) | HLA-A*03:01 |
| 128 (MTFVPLLAR; listed as Homo sapiens) [compound 128] |  | ++++ (≥75% = ++++) | HLA-A*03:01 |
| 138 (RTLPLEGSPK; listed as Homo sapiens) [compound 138] |  | +++ (≥50% = +++) | HLA-A*03:01 |

Further lines, with some results ahead:

| Peptide exchange (HLA-B*07:0) | Peptide exchange (HLA-A*03:01) | Substance | Binders (HLA alleles the peptides according to the invention bind to) [1] |
| --- | --- | --- | --- |
|  | ++++ (≥75% = ++++) | 143 (AVLGALLRH; listed as Homo sapiens) [compound 143] | HLA-A*03:01 |
|  | +++ (≥50% = +++) | 144 (IIVPSFYK; listed as Homo sapiens) [compound 144] | HLA-A*03:01 |
|  | +++ (≥50% = +++) | 146 (KVLVDFLLK; listed as Homo sapiens) [compound 146] | HLA-A*03:01 |
|  | ++++ (≥75% = ++++) | 148 (SVYMATTLK; listed as Homo sapiens) [compound 148] | HLA-A*03:01 |
|  | +++ (≥50% = +++) | 149 (SMNSKALRWK; listed as Homo sapiens) [compound 149] | HLA-A*03:01 |
|  | +++ (≥50% = +++) | 150 (IVFLLQQGEK; listed as Homo sapiens) [compound 150] | HLA-A*03:01 |
|  | ++++ (≥75% = ++++) | 151 (AVFVNWEQTKK; listed as Homo sapiens) [compound 151] | HLA-A*03:01 |
|  | ++++ (≥75% = ++++) | 152 (KIMEILNLK; listed as Homo sapiens) [compound 152] | HLA-A*03:01 |
|  | +++ (≥50% = +++) | 154 (TVTSAIVNR; listed as Homo sapiens) [compound 154] | HLA-A*03:01 |
|  | +++ (≥50% = +++) | 159 (ASAIPAGAK; listed as Homo sapiens) [compound 159] | HLA-A*03:01 |
|  | +++ (≥50% = +++) | 161 (ILAASFQAR; listed as Homo sapiens) [compound 161] | HLA-A*03:01 |
|  | ++++ (≥75% = ++++) | 166 (VIFLHQPPK; listed as Homo sapiens) [compound 166] | HLA-A*03:01 |
|  | +++ (≥50% = +++) | 174 (LSGPVTFLR; listed as Homo sapiens) [compound 174] | HLA-A*03:01 |
|  | ++++ (≥75% = ++++) | 178 (SLFGGLFTR; listed as Homo sapiens) [compound 178] | HLA-A*03:01 |
|  | ++++ (≥75% = ++++) | 179 (MIFSGVFLR; listed as Homo sapiens) [compound 179] | HLA-A*03:01 |
|  | ++++ (≥75% = ++++) | 187 (RLCPAAPTGK; listed as Homo sapiens) [compound 187] | HLA-A*03:01 |
|  | +++ (≥50% = +++) | 190 (STQSSLLYLK; listed as Homo sapiens) [compound 190] | HLA-A*03:01 |
|  | +++ (≥50% = +++) | 193 (ILQLITVNR; listed as Homo sapiens) [compound 193] | HLA-A*03:01 |
|  | ++++ (≥75% = ++++) | 198 (MTYQQPFSNR; listed as Homo sapiens) [compound 198] | HLA-A*03:01 |
|  | +++ (≥50% = +++) | 202 (KLLLLSSVK; listed as Homo sapiens) [compound 202] | HLA-A*03:01 |
|  | +++ (≥50% = +++) | 203 (AILVPQPPK; listed as Homo sapiens) [compound 203] | HLA-A*03:01 |
|  | +++ (≥50% = +++) | 204 (VVRASSGLK; listed as Homo sapiens) [compound 204] | HLA-A*03:01 |
|  | ++ (≥20% = ++) | 205 (SLIPIVPFKS; listed as Homo sapiens) [compound 205] | HLA-A*03:01 |
|  | ++++ (≥75% = ++++) | 209 (AILLPQLPK; listed as Homo sapiens) [compound 209] | HLA-A*03:01 |
|  | ++++ (≥75% = ++++) | 213 (TLLSFKTVLFK; listed as Homo sapiens) [compound 213] | HLA-A*03:01 |
